How the values were obtained:
[1] = target: mutant T238V yeast αβ-tubulin (T238V in Tub2p, β-tubulin) (yeast (S. cerevisiae)) (UniProt P09733); assay: laser trap plucking force assay; bead tethered by a single anti-His antibody to the His6 tag of β-tubulin at the growing end of a coverslip-anchored microtubule; force ramp 0.25 pN s^-1 until detachment; only detachments followed at once by disassembly counted; removal of tubulin dimers from the microtubule end
[2] = target: wild-type yeast αβ-tubulin with a His6 tag fused to the C-terminus of β-tubulin (yeast (S. cerevisiae)) (UniProt P09733); assay: as above

“mutant T238V yeast αβ-tubulin (T238V in Tub2p, β-tubulin) (from UniProt P09733 1-447; P02557 1-457) (complex)” gave a plucking force [1] of 19 pN.

In the case of “wild-type yeast αβ-tubulin with a His6 tag fused to the C-terminus of β-tubulin (from UniProt P09733 1-447; P02557 1-457) (complex)”, the plucking force [2] is reported as 8.3 pN.
